Patent US20240343811A1
Read-outs that look alike come from different tables or passages of the source.

Legend:
[1] = biological target: human CD16a (158V), full length, on cells (human) (UniProt P08637); experiment: FACS, biotinylated antibody, +10 mg/mL human immunoglobulin
[2] = biological target: CD16 on primary human NK cells (human) (UniProt P08637); experiment: FACS on human NK cells
[3] = biological target: human CD16a (158V), full length, on cells (human) (UniProt P08637); experiment: FACS, biotinylated antibody
[4] = biological target: human CD16b (NA1), full length, on FlpinCHO cells (human) (UniProt O75015); experiment: FACS on FlpinCHO cells
[5] = biological target: human CD16b (NA2), full length, on FlpinCHO cells (human) (UniProt O75015); experiment: FACS on FlpinCHO cells
[6] = biological target: human CD16a (158F), full length, on FlpinCHO cells (human) (UniProt P08637); experiment: FACS on FlpinCHO cells
[7] = biological target: human CD16a (158V), full length, on cells (human) (UniProt P08637); experiment: FACS on FlpinCHO cells
[8] = biological target: cynomolgus monkey CD16, full length, on FlpinCHO cells (cynomolgus monkey) (UniProt Q8SPW2); experiment: FACS on FlpinCHO cells
[9] = biological target: human CD16a (158V), full length, on cells (human) (UniProt P08637); experiment: cell-based or functional assay
[10] = biological target: human CD16a (158V), full length, on cells (human) (UniProt P08637); experiment: cell-based or functional assay; remark: listed apart in the source

Chain of human CD16a (158V), full length, on cells (human) (P08637 17-254 F176V limits assumed): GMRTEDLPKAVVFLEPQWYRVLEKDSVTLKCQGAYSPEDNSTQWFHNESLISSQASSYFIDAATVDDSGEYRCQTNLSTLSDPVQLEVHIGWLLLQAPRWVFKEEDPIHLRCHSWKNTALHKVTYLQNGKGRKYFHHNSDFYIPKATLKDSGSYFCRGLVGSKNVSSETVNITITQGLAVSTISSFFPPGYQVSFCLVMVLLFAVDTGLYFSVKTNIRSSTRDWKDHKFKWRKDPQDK
Chain of human CD16a (158F), full length, on FlpinCHO cells (human) (P08637 17-254 limits assumed): as the sequence (P08637 17-254 F176V limits assumed) above, with V160F counted along it
Chain of CD16 on primary human NK cells (human) (P08637 17-254): as the sequence (P08637 17-254 F176V limits assumed) above, with V160F counted along it
Chain of cynomolgus monkey CD16, full length, on FlpinCHO cells (cynomolgus monkey) (Q8SPW2 other isoform, or with tags, fused parts or gaps limits assumed): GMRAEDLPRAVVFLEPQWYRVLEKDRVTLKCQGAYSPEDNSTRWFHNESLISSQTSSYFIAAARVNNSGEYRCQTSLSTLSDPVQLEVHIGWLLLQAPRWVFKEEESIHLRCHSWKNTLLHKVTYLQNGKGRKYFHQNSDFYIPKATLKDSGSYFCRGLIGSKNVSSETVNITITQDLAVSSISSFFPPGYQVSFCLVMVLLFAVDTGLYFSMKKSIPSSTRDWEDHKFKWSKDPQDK
Chain of human CD16b (NA1), full length, on FlpinCHO cells (human) (O75015 other isoform, or with tags, fused parts or gaps limits assumed): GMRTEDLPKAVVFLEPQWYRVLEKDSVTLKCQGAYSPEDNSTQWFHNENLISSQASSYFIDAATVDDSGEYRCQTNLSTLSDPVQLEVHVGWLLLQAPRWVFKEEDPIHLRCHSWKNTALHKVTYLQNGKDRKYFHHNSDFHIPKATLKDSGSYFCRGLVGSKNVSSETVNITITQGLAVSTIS
Chain of human CD16b (NA2), full length, on FlpinCHO cells (human) (O75015 17-200 N65S limits assumed): as the sequence (O75015 other isoform, or with tags, fused parts or gaps limits assumed) above, with R20S, N49S, D66N, V90I counted along it

Maximum mean fluorescence intensity [1]: 96 | Maximum mean fluorescence intensity [2]: 238 | Maximum mean fluorescence intensity [3]: 134 | Maximum mean fluorescence intensity [4]: 189 | Maximum mean fluorescence intensity [5]: 447 | Maximum mean fluorescence intensity [6]: 216 | Maximum mean fluorescence intensity [7]: 248 | Maximum mean fluorescence intensity [8]: 128 | Maximum fluorescence value [9]: 2070 | EC50, activation activity for Jurkat cell [10]: 0.019 µM | Maximum fluorescence value [10]: 6400
Substance: NC, negative control antibody scFv-hFc (L234A, L235A and D265A) against chicken egg lysozyme (Fc fusion)
